Laboratory results: the supplement of paper PMC7877785
± gives the uncertainty stated by the source.

Assay: self-splicing fitness, log relative to wild type (ln ratio); higher = more splicing; Tetrahymena group I intron in knt gene, E. coli kanamycin selection, DiMSum; sequences stand for … in CUCUCU…GGAGGGAAAAGUUAUCAGGCAUGCACCUGGUAGCUAGUCUUUAAACCAAUAGAUUGCAUCGGUUUAAAAGGCAAGACCGUCAAAUUGCGGGAAAGGGGUCAACAGCCGUUCAGUACCAAGUCUCAGGGGAAACUUUGAGAUGGCCUUGCAAAGGGUAUGGUAAUAAGCUGACGGACAUGGUCCUAACCACGCAGCCAAGUCCUAAGUCAACAGAUCUUCUGUUGAUAUGGAUGCAGUUCACAGACUAAAUGUCGGUCGGGGAAGAUGUAUUCUUCUCAUAAGAUAUAGUCGGACCUCUCCUUAAUGGGAGCUAGCGGAUGAAGUGAUGCAACACUGGAGCCGCUGGGAACUAAUUUGUAUGCGAAAGUAUAUUGAUUAGUUUUGGAGUACUCGUGGUCG
Method in brief: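 The eight P1ex-region nucleotides of an intron in the knt kanamycin-resistance gene on pET-22b(+) were all randomised and the library put into E. coli BL21(DE3). Six replicate transformations were grown overnight at 37°C or 30°C on LB agar with or without 25 μg/mL kanamycin, together with 100 μg/mL carbenicillin, 50 μM IPTG and 0.2% rhamnose. Colonies were pooled and amplicon-sequenced on an Illumina HiSeq 2500. Fitness from DiMSum is the error-weighted combination of wild-type-normalised replicate fold changes, kanamycin over none.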

| Sequence | self-splicing fitness (ln) (30 °C) | self-splicing fitness (ln) (37 °C) |
| --- | --- | --- |
| GGCGAGCAAUAUUACGUUGG | -3.75 ± 0.32 | -2.92 ± 0.35 |
| GGCGAGCAAUAUUACGUUUC | -2.07 ± 0.23 | -1.99 ± 0.26 |
| GGCUAGCAAUAUUACGAUAG |  | -2.41 ± 0.39 |
| GGCUAGCAAUAUUACGAUUC | -0.162 ± 0.098 | -0.0286 ± 0.13 |
| GGCUAGCAAUAUUACGCAAA | -1.68 ± 0.18 | -0.628 ± 0.16 |
| GGCUAGCAAUAUUACGCAAU | -0.887 ± 0.14 | -0.69 ± 0.16 |
| GGCUAGCAAUAUUACGCAGC |  | -2.29 ± 0.39 |
| GGCUAGCAAUAUUACGCAUC | 0.346 ± 0.16 | 0.785 ± 0.17 |
| GGCUAGCAAUAUUACGCCGA | -1.8 ± 0.28 | -1.05 ± 0.25 |
| GGCUAGCAAUAUUACGCGGG | -3.62 ± 0.25 | -3.06 ± 0.27 |
| GGCUAGCAAUAUUACGCUAC | -3.04 ± 0.48 | -2.3 ± 0.34 |
| GGCUAGCAAUAUUACGCUCA | -2.07 ± 0.33 | -0.183 ± 0.25 |
| GGCUAGCAAUAUUACGUCUC | -0.325 ± 0.094 | -0.0256 ± 0.11 |
| GGCUAGCAAUAUUACGUGAA | -0.24 ± 0.086 | -0.383 ± 0.086 |
| GGCUAGCAAUAUUACGUGUU | -1.02 ± 0.058 | 0.41 ± 0.063 |
| GGGAAGCAAUAUUACGAAGU | -2.43 ± 0.29 | -1.83 ± 0.35 |
| GGGAAGCAAUAUUACGAGAG | -3.24 ± 0.27 | -2.46 ± 0.24 |
| GGGAAGCAAUAUUACGAGGC | -3.08 ± 0.29 | -1.4 ± 0.2 |
| GGGAAGCAAUAUUACGAGUU | -2.86 ± 0.15 | -1.02 ± 0.099 |
| GGGAAGCAAUAUUACGAUGA | -0.977 ± 0.13 | -0.771 ± 0.13 |
| GGGAAGCAAUAUUACGCGCA | -0.0561 ± 0.11 | -0.304 ± 0.13 |
| GGGAAGCAAUAUUACGCGUA | -0.73 ± 0.14 | -0.267 ± 0.14 |
| GGGAAGCAAUAUUACGGACG | -0.846 ± 0.11 | -0.443 ± 0.13 |
| GGGAAGCAAUAUUACGGAGC | -1.91 ± 0.21 | -1.3 ± 0.21 |
| GGGAAGCAAUAUUACGGCCU | -3.14 ± 0.26 | -1.35 ± 0.25 |

| Sequence | self-splicing fitness (ln) (30 °C) | self-splicing fitness (ln) (37 °C) |
| --- | --- | --- |
| GGGAAGCAAUAUUACGGGCA | -1.9 ± 0.19 | 0.154 ± 0.21 |
| GGGAAGCAAUAUUACGGUAG | -2.65 ± 0.2 | -2.32 ± 0.24 |
| GGGAAGCAAUAUUACGGUGU | -2.2 ± 0.1 | -0.483 ± 0.13 |
| GGGAAGCAAUAUUACGUAAC | -2.91 ± 0.26 | -1.06 ± 0.18 |
| GGGAAGCAAUAUUACGUAGA | -1.36 ± 0.15 | -0.824 ± 0.19 |
| GGGAAGCAAUAUUACGUAUU | -1.87 ± 0.13 | -1.58 ± 0.15 |
| GGGAAGCAAUAUUACGUCGG |  | -0.827 ± 0.18 |
| GGGAAGCAAUAUUACGUGCC |  | -0.148 ± 0.38 |
| GGGAAGCAAUAUUACGUUAU | -2.98 ± 0.26 | -1.33 ± 0.18 |
| GGGCAGCAAUAUUACGACAC | -0.731 ± 0.26 | 0.302 ± 0.27 |
| GGGCAGCAAUAUUACGAGUC | -1.84 ± 0.21 | -1.81 ± 0.28 |
| GGGCAGCAAUAUUACGCAUC | -2.25 ± 0.41 | -0.733 ± 0.2 |
| GGGCAGCAAUAUUACGCGAA | -0.567 ± 0.073 | 0.0161 ± 0.099 |
| GGGCAGCAAUAUUACGCGCG | -0.63 ± 0.13 | -0.682 ± 0.14 |
| GGGCAGCAAUAUUACGCGGG | -1.76 ± 0.16 | -1.21 ± 0.2 |
| GGGCAGCAAUAUUACGCGUG | -0.165 ± 0.18 | -1.87 ± 0.22 |
| GGGCAGCAAUAUUACGGACG | -1.01 ± 0.056 | 0.591 ± 0.078 |
| GGGCAGCAAUAUUACGGAGC | -2.15 ± 0.19 | -1.12 ± 0.2 |
| GGGCAGCAAUAUUACGGCAC | -1.17 ± 0.16 | -0.328 ± 0.17 |
| GGGCAGCAAUAUUACGGCGA | -0.562 ± 0.11 | -0.245 ± 0.099 |
| GGGCAGCAAUAUUACGGGGG | -3.44 ± 0.41 |  |
| GGGCAGCAAUAUUACGGUGU | -2.02 ± 0.1 | -1.21 ± 0.099 |
| GGGCAGCAAUAUUACGUCGU | -0.45 ± 0.11 | -0.185 ± 0.1 |
| GGGCAGCAAUAUUACGUUAC | -1.84 ± 0.16 | -0.903 ± 0.23 |
| GGGGAGCAAUAUUACGACUG | -0.399 ± 0.45 |  |

| Sequence | self-splicing fitness (ln) (30 °C) | self-splicing fitness (ln) (37 °C) |
| --- | --- | --- |
| GGGGAGCAAUAUUACGACUU | -1.2 ± 0.16 | 0.242 ± 0.22 |
| GGGGAGCAAUAUUACGCUUU | -2.18 ± 0.27 |  |
| GGGGAGCAAUAUUACGGAAA |  | -0.21 ± 0.41 |
| GGGGAGCAAUAUUACGGAAU |  | -1.68 ± 0.33 |
| GGGGAGCAAUAUUACGGAGU | -1.01 ± 0.41 |  |
| GGGGAGCAAUAUUACGGUCG | -2.08 ± 0.28 | -0.686 ± 0.35 |
| GGGGAGCAAUAUUACGUAAA | -3.12 ± 0.36 | -1.18 ± 0.3 |
| GGGGAGCAAUAUUACGUGUC | -3.68 ± 0.33 | -2.19 ± 0.18 |
| GGGUAGCAAUAUUACGAAUC | 0.0354 ± 0.3 | -0.646 ± 0.36 |
| GGGUAGCAAUAUUACGACAA | -0.573 ± 0.24 | -0.263 ± 0.21 |
| GGGUAGCAAUAUUACGAGAC | -3.48 ± 0.32 | -1.9 ± 0.42 |
| GGGUAGCAAUAUUACGAGAG | -3.56 ± 0.28 | -2.26 ± 0.2 |
| GGGUAGCAAUAUUACGAGUU | -0.948 ± 0.092 | -1.38 ± 0.2 |
| GGGUAGCAAUAUUACGAUCG | -0.211 ± 0.16 | -0.869 ± 0.22 |
| GGGUAGCAAUAUUACGCAAC |  | -2.43 ± 0.44 |
| GGGUAGCAAUAUUACGCAAU | -1.79 ± 0.31 | -1.47 ± 0.39 |
| GGGUAGCAAUAUUACGCCCG | -1.88 ± 0.25 | -1.32 ± 0.17 |
| GGGUAGCAAUAUUACGGACA | -0.93 ± 0.093 | -0.223 ± 0.097 |
| GGGUAGCAAUAUUACGGCAU | -0.0241 ± 0.076 | -0.23 ± 0.096 |
| GGGUAGCAAUAUUACGGGCU | -0.35 ± 0.081 | 0.282 ± 0.13 |
| GGGUAGCAAUAUUACGGGUG | -4.22 ± 0.36 | -2.68 ± 0.22 |
| GGGUAGCAAUAUUACGGUAU | -2.11 ± 0.13 | -0.598 ± 0.14 |
| GGGUAGCAAUAUUACGGUGG | -2.55 ± 0.27 | -1.61 ± 0.33 |
| GGGUAGCAAUAUUACGUGCA | -0.359 ± 0.12 | -0.483 ± 0.14 |
| GGGUAGCAAUAUUACGUUCC |  | -2.09 ± 0.46 |

| Sequence | self-splicing fitness (ln) (30 °C) | self-splicing fitness (ln) (37 °C) |
| --- | --- | --- |
| GGGUAGCAAUAUUACGUUGC | -3.63 ± 0.33 | -0.334 ± 0.22 |
| GGUAAGCAAUAUUACGAAAA | -2.86 ± 0.43 | -0.969 ± 0.34 |
| GGUAAGCAAUAUUACGAAGU | -1.93 ± 0.31 | -1.78 ± 0.25 |
| GGUAAGCAAUAUUACGACGC | 0.697 ± 0.17 | 0.22 ± 0.21 |
| GGUAAGCAAUAUUACGAUAU | -0.847 ± 0.15 | 0.242 ± 0.2 |
| GGUAAGCAAUAUUACGAUGC | -0.616 ± 0.13 | -0.401 ± 0.16 |
| GGUAAGCAAUAUUACGAUGU | -1.2 ± 0.061 | -0.805 ± 0.074 |
| GGUAAGCAAUAUUACGCCAG | -4.42 ± 0.27 | -2.13 ± 0.29 |
| GGUAAGCAAUAUUACGCCUA | -0.917 ± 0.088 | -0.737 ± 0.091 |
| GGUAAGCAAUAUUACGCCUU | -1.49 ± 0.15 | -0.81 ± 0.15 |
| GGUAAGCAAUAUUACGCGCA | -0.159 ± 0.074 | -0.401 ± 0.085 |
| GGUAAGCAAUAUUACGCGGG | -3.28 ± 0.17 | -2.02 ± 0.2 |
| GGUAAGCAAUAUUACGCUAC | -2.3 ± 0.4 | -2.23 ± 0.37 |
| GGUAAGCAAUAUUACGCUCG | -0.274 ± 0.13 | -0.892 ± 0.23 |
| GGUAAGCAAUAUUACGGACU | -1.43 ± 0.17 | -0.246 ± 0.2 |
| GGUAAGCAAUAUUACGGAGG |  | -3.58 ± 0.42 |
| GGUAAGCAAUAUUACGGAGU | -3.39 ± 0.22 | -1.73 ± 0.18 |
| GGUAAGCAAUAUUACGGCUA | 0.109 ± 0.085 | -0.0128 ± 0.11 |
| GGUAAGCAAUAUUACGGGGU |  | -2.57 ± 0.25 |
| GGUAAGCAAUAUUACGGGUG | -3.24 ± 0.12 | -1.85 ± 0.088 |
| GGUAAGCAAUAUUACGUACC | -3.79 ± 0.44 |  |
| GGUAAGCAAUAUUACGUCAC | -2.85 ± 0.24 | -2.04 ± 0.23 |
| GGUAAGCAAUAUUACGUCAG | -3.79 ± 0.34 | -2.52 ± 0.39 |
| GGUAAGCAAUAUUACGUGGC | -2.67 ± 0.15 | -1.29 ± 0.16 |
| GGUAAGCAAUAUUACGUGUG | -2.8 ± 0.16 | -2.61 ± 0.16 |
